# Source: PMC3079584, “A Cytoplasmic Complex Mediates Specific mRNA Recognition and Localization in Yeast”
# T1: She3p (Saccharomyces cerevisiae, UniProt P38272 1-425)
# T1 sequence: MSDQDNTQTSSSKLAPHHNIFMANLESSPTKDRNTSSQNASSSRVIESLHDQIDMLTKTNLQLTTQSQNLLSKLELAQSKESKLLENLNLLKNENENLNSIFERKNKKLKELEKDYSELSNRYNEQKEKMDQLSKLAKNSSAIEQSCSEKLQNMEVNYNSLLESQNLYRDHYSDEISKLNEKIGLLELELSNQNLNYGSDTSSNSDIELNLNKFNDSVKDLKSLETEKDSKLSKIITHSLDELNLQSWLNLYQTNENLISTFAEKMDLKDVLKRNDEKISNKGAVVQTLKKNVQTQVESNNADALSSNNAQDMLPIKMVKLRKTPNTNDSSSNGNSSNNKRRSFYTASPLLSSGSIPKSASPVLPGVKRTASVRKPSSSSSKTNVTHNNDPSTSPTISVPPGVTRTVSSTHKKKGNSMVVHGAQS
# Key:
# [1] = target: T2, She2p (Saccharomyces cerevisiae, UniProt P36068 1-246); test: filter binding; range over three control RNAs; EMSA: 20 mM HEPES pH 7.8, 200 mM NaCl, 2 mM MgCl2, 2 mM DTT, 4% glycerol, 30 or 100 ug/ml yeast tRNA, 5 nM RNA, 20 C; filter binding: 20 mM HEPES pH 7.4-7.5 (7.9 with She3p), 150 mM NaCl, 2 mM MgCl2, 2 mM DTT, 30 ug/ml yeast tRNA, 0.5 nM RNA; pull-down: HNMD buffer, 4 C; conditions: protein: recombinant; tags: GST tag (PreScission-cleaved); chain copies: 4; label: 32P; hairpin
# [2] = target: T3, She2p;She3p (Saccharomyces cerevisiae;Saccharomyces …, UniProt P36068;P38272 1-246;1-425, |); test: EMSA; She3p constant 25 nM, She2p varied; EMSA: 20 mM HEPES pH 7.8, 200 mM NaCl, 2 mM MgCl2, 2 mM DTT, 4% glycerol, 30 or 100 ug/ml yeast tRNA, 5 nM RNA, 20 C; filter binding: 20 mM HEPES pH 7.4-7.5 (7.9 with She3p), 150 mM NaCl, 2 mM MgCl2, 2 mM DTT, 30 ug/ml yeast tRNA, 0.5 nM RNA; pull-down: HNMD buffer, 4 C; conditions: protein: recombinant;recombinant; tags: GST tag (PreScission-cleaved);C-terminal His6; chain copies: 4;2; label: 32P; stem-loop
# Target sequence in this assay (P36068 whole entry, one chain of several): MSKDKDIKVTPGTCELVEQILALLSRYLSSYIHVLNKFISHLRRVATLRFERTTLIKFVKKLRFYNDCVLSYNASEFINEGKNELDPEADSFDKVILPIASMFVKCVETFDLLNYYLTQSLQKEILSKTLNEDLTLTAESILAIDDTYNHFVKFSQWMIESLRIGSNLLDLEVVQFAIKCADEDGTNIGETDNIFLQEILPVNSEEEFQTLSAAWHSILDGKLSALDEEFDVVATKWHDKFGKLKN
# [3] = target: T1, She3p; test: EMSA; subtle shift at 25 nM She3p; EMSA: 20 mM HEPES pH 7.8, 200 mM NaCl, 2 mM MgCl2, 2 mM DTT, 4% glycerol, 30 or 100 ug/ml yeast tRNA, 5 nM RNA, 20 C; filter binding: 20 mM HEPES pH 7.4-7.5 (7.9 with She3p), 150 mM NaCl, 2 mM MgCl2, 2 mM DTT, 30 ug/ml yeast tRNA, 0.5 nM RNA; pull-down: HNMD buffer, 4 C; conditions: protein: recombinant; tags: C-terminal His6; label: 32P; stem-loop
# [4] = target: T3, She2p;She3p; test: EMSA; She3p constant 25 nM; Kd stated as in similar range; EMSA: 20 mM HEPES pH 7.8, 200 mM NaCl, 2 mM MgCl2, 2 mM DTT, 4% glycerol, 30 or 100 ug/ml yeast tRNA, 5 nM RNA, 20 C; filter binding: 20 mM HEPES pH 7.4-7.5 (7.9 with She3p), 150 mM NaCl, 2 mM MgCl2, 2 mM DTT, 30 ug/ml yeast tRNA, 0.5 nM RNA; pull-down: HNMD buffer, 4 C; conditions: protein: recombinant;recombinant; tags: GST tag (PreScission-cleaved);C-terminal His6; chain copies: 4;2; label: 32P; stem-loop
# Target sequence in this assay (P36068 whole entry, chain 1 of 2, one chain of several): as the sequence (P36068 whole entry, one chain of several) above
# [5] = target: T1, She3p; test: UV cross-linking; EMSA: 20 mM HEPES pH 7.8, 200 mM NaCl, 2 mM MgCl2, 2 mM DTT, 4% glycerol, 30 or 100 ug/ml yeast tRNA, 5 nM RNA, 20 C; filter binding: 20 mM HEPES pH 7.4-7.5 (7.9 with She3p), 150 mM NaCl, 2 mM MgCl2, 2 mM DTT, 30 ug/ml yeast tRNA, 0.5 nM RNA; pull-down: HNMD buffer, 4 C; conditions: protein: recombinant; tags: C-terminal His6; label: 32P; stem-loop
# [6] = target: T2, She2p; test: as above; conditions: protein: recombinant; tags: GST tag (PreScission-cleaved); chain copies: 4; label: 32P; stem-loop
# [7] = target: Puf6p (Saccharomyces cerevisiae, UniProt Q04373 2-656); test: EMSA; EMSA: 20 mM HEPES pH 7.8, 200 mM NaCl, 2 mM MgCl2, 2 mM DTT, 4% glycerol, 30 or 100 ug/ml yeast tRNA, 5 nM RNA, 20 C; filter binding: 20 mM HEPES pH 7.4-7.5 (7.9 with She3p), 150 mM NaCl, 2 mM MgCl2, 2 mM DTT, 30 ug/ml yeast tRNA, 0.5 nM RNA; pull-down: HNMD buffer, 4 C; conditions: protein: recombinant, tags: GST tag (cleaved for EMSA; retained in GST pull-downs), label: 32P
# [8] = target: She2p (ΔhE) (Saccharomyces cerevisiae, UniProt P36068 1-246, del174-183); test: size-exclusion chromatography; binary co-complex; EMSA: 20 mM HEPES pH 7.8, 200 mM NaCl, 2 mM MgCl2, 2 mM DTT, 4% glycerol, 30 or 100 ug/ml yeast tRNA, 5 nM RNA, 20 C; filter binding: 20 mM HEPES pH 7.4-7.5 (7.9 with She3p), 150 mM NaCl, 2 mM MgCl2, 2 mM DTT, 30 ug/ml yeast tRNA, 0.5 nM RNA; pull-down: HNMD buffer, 4 C; conditions: protein: recombinant; tags: GST tag (PreScission-cleaved); chain copies: 2; stem-loop
# [9] = target: She2p (ΔC);She3p (Saccharomyces cerevisiae;Saccharomyces …, UniProt P36068;P38272 1-240;1-425, |); test: size-exclusion chromatography; EMSA: 20 mM HEPES pH 7.8, 200 mM NaCl, 2 mM MgCl2, 2 mM DTT, 4% glycerol, 30 or 100 ug/ml yeast tRNA, 5 nM RNA, 20 C; filter binding: 20 mM HEPES pH 7.4-7.5 (7.9 with She3p), 150 mM NaCl, 2 mM MgCl2, 2 mM DTT, 30 ug/ml yeast tRNA, 0.5 nM RNA; pull-down: HNMD buffer, 4 C; conditions: protein: recombinant;recombinant; tags: GST tag (PreScission-cleaved);C-terminal His6; stem-loop
# [10] = target: Puf6p;She2p;She3p (Saccharomyces cerevisiae;Saccharomyces …, UniProt Q04373;P36068;P38272 2-656;1-246;1-425, ||); test: pull-down; His-She3p or GST-Puf6p immobilized; EMSA: 20 mM HEPES pH 7.8, 200 mM NaCl, 2 mM MgCl2, 2 mM DTT, 4% glycerol, 30 or 100 ug/ml yeast tRNA, 5 nM RNA, 20 C; filter binding: 20 mM HEPES pH 7.4-7.5 (7.9 with She3p), 150 mM NaCl, 2 mM MgCl2, 2 mM DTT, 30 ug/ml yeast tRNA, 0.5 nM RNA; pull-down: HNMD buffer, 4 C; conditions: protein: recombinant;recombinant;recombinant; tags: GST tag (cleaved for EMSA; retained in GST pull-downs);GST tag (PreScission-cleaved);C-terminal His6; stem-loop
# [11] = target: T3, She2p;She3p; test: size-exclusion chromatography; pull-down; EMSA: 20 mM HEPES pH 7.8, 200 mM NaCl, 2 mM MgCl2, 2 mM DTT, 4% glycerol, 30 or 100 ug/ml yeast tRNA, 5 nM RNA, 20 C; filter binding: 20 mM HEPES pH 7.4-7.5 (7.9 with She3p), 150 mM NaCl, 2 mM MgCl2, 2 mM DTT, 30 ug/ml yeast tRNA, 0.5 nM RNA; pull-down: HNMD buffer, 4 C; conditions: protein: recombinant;recombinant; tags: GST tag (PreScission-cleaved);C-terminal His6; chain copies: 4;2; stem-loop
# Target sequence in this assay (P36068 whole entry, one chain of several): as above
# [12] = target: Puf6p;She2p (Saccharomyces cerevisiae;Saccharomyces …, UniProt Q04373;P36068 2-656;1-246, |); test: pull-down; GST-Puf6p immobilized; EMSA: 20 mM HEPES pH 7.8, 200 mM NaCl, 2 mM MgCl2, 2 mM DTT, 4% glycerol, 30 or 100 ug/ml yeast tRNA, 5 nM RNA, 20 C; filter binding: 20 mM HEPES pH 7.4-7.5 (7.9 with She3p), 150 mM NaCl, 2 mM MgCl2, 2 mM DTT, 30 ug/ml yeast tRNA, 0.5 nM RNA; pull-down: HNMD buffer, 4 C; conditions: protein: recombinant;recombinant; tags: GST tag (cleaved for EMSA; retained in GST pull-downs);GST tag (PreScission-cleaved); copies: 1;4; stem-loop
# [13] = target: T1, She3p; test: EMSA; EMSA: 20 mM HEPES pH 7.8, 200 mM NaCl, 2 mM MgCl2, 2 mM DTT, 4% glycerol, 30 or 100 ug/ml yeast tRNA, 5 nM RNA, 20 C; filter binding: 20 mM HEPES pH 7.4-7.5 (7.9 with She3p), 150 mM NaCl, 2 mM MgCl2, 2 mM DTT, 30 ug/ml yeast tRNA, 0.5 nM RNA; pull-down: HNMD buffer, 4 C; conditions: protein: recombinant; tags: C-terminal His6; label: 32P; stem-loop
# T2 sequence (P36068 whole entry): as the sequence (P36068 whole entry, one chain of several) above
# Chain of Puf6p (Q04373 2-656): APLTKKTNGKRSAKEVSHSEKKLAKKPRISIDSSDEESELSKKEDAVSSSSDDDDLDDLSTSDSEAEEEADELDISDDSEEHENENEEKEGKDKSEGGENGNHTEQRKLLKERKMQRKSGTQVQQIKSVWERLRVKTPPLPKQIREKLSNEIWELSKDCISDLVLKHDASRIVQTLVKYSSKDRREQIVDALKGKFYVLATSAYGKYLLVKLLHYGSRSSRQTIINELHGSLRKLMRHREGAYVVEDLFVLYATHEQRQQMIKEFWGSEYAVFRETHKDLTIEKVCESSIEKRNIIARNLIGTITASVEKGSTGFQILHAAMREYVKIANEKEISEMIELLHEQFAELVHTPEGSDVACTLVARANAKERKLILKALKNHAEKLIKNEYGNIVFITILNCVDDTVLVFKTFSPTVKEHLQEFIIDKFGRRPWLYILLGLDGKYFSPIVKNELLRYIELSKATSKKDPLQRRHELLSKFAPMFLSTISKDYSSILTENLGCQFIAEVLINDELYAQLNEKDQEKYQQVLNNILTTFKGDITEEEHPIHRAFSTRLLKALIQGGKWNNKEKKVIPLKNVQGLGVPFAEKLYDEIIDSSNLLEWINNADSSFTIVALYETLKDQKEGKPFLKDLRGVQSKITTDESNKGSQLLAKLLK
# Chain of She2p (ΔhE) (P36068 other isoform, or with tags, fused parts or gaps del174-183 | mutant): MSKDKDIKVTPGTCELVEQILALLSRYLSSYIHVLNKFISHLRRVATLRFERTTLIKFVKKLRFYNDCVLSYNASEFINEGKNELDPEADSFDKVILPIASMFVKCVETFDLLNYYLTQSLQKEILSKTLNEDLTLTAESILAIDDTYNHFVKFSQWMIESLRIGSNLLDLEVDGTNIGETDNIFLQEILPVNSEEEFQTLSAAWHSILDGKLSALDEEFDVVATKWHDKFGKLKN
# Chain of She2p (ΔC);She3p (P36068 1-240, stated change not applied, one chain of several): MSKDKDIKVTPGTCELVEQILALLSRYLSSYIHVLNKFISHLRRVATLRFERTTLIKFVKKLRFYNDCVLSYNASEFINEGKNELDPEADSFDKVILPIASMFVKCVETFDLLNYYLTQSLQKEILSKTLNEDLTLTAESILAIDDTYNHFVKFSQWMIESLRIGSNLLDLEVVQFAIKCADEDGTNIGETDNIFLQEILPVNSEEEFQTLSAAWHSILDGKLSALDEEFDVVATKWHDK
# Chain of Puf6p;She2p (Q04373 2-656, chain 1 of 2): as the sequence (Q04373 2-656) above
# Chain of Puf6p;She2p (P36068 whole entry, chain 2 of 2): as the sequence (P36068 whole entry, one chain of several) above
# Chain of Puf6p;She2p;She3p (Q04373 2-656, chain 1 of 2): as the sequence (Q04373 2-656) above
# Chain of Puf6p;She2p;She3p (P36068 whole entry, chain 2 of 2): as the sequence (P36068 whole entry, one chain of several) above
binder,measurement,setting,value
HIV-1 TAR (57 bases) (structured_RNA) RNA: GGUCUCUCUGGUUAGACCAGAUCUGAGCCUGGGAGCUCUCUGGCUAACUAGGGAACC,Kd,[1],~1330 nM
UUAUCCAUUGCACUCCGGAUGU (structured_RNA) [U1 snRNA hairpin II],Kd,[1],~1330 nM
ASH1 E2B (domain 1) (structured_RNA) RNA: AUCUUCAUCUCCAUCUCCCUCCACACCGACGAAAAGUGGCAAGAUGAGAUCAAGAUCA,Kd,[2],~25 nM
ASH1 E2A (structured_RNA) RNA: UUGCGAAUAGAGACAUUCUAUCGAACAAUUCCAAAUCUAAUGUAAGGAAACCAUCUAAGAACAAAAUCUCAAAGCAA,Kd,[2],~25 nM
same,binding result,[3],binds
ASH1 E3-51 (structured_RNA) RNA: AUGGAUAACUGAAUCUCUUUCAACUAAUAAGAGACAUUAUCACGAAACAAU,Kd,[4],~25 nM
same,binding result,[5],binds
same,binding result,[6],binds
Poly(A)60 (ssRNA) RNA: AAAAAAAAAAAAAAAAAAAAAAAAAAAAAAAAAAAAAAAAAAAAAAAAAAAAAAAAAAAA,binding result,[7],binds
ASH1 E1 (structured_RNA) RNA: AAGACUAUGUUAAAAUACGCGAAGAAGUGGCUCAUUUCAAGCCAUUAAGUAUACCCAACUUAACUAAUAAUCAAAAUAA,Kd,[2],~25 nM
same,binding result,[3],binds
E3-118-tRNA (structured_RNA) RNA: GGCUACGUAGCUCAGUUGGUUAGAGCAGCGGCCGGAGACAGUAGAGAAUUGAUACAUGGAUAACUGAAUCUCUUUCAACUAAUAAGAGACAUUAUCACGAAACAAUUGUACAUUUCUCUCCUUGUCUGUGCUAAAUAAACUACAAAUAAAAACCGCGGGUCACAGGUUCGAAUCCCGUCGUAGCCACCA,binding result,[8],binds
same,binding result,[9],binds
same,binding result,[10],binds
same,binding result,[11],binds
same,binding result,[12],binds
CGAAGAUGAAAAUGAUCACGAGAGAGAUCCCGAACAAUUUUCAGAAUUUG (structured_RNA) [EAR1 zip code],binding result,[13],binds
same,binding result,[7]; stem-loop,binds
same,Kd,[2],~25 nM
CGAGCCUGGGAGCUCG (structured_RNA) [HIV-1 TAR (16 bases)],Kd,[1],~1330 nM
